Experimental data published in the DeepSol protein solubility set.

Test: soluble on expression in E. coli; label from the status in PepcDB or PDB records

Row | Sequence | soluble on expression in E. coli
1 | AHHHHHHGSKKKYKKVVVGGTFDRLHLGHKALLRKAFEVGEIVYIGLTSDEMIKEKQYSERILPYEKRLLDLIKFLEVNKYRNYRIMKIHNAIGFTTKIKSLEAIVVSEETYKGAVLVNKAREELGLRPLDIVVIPIIRSRLGCKISSSLIRAGLIDPFGNPIRREEK | not soluble
2 | MALIEKNTQFDADKLTANVVGIAADVGKHDSGMHQHHKGQLLYAPQGCMTFALNDSICILPPTKAVWIPPHTPHRAVMTNVVAYRSVYFDCDKFSCPKSIVMIEVNDLLKALINKMALWEWDIEQTKTNATTILFWEEFYQAKQFELTLPLPSDRRLASFRNAMTKDGFIAPD | not soluble
3 | AKSVVSHSLTTLGVEVSKPPPQHDKIEASEPSFPLHESILKVVEEEWQQIDRQLPSVACRYPVSSIEAARILSVPKVDDEILGFISEATPAAATQASSTESCDKHLDLALCRSYEAAASALQIAAHTAFVAKSLQADISQAAQIINSDPSDAQQALRILNRTYDAASYLCDAAFDEVRMSACAMGSSTMGRRYLWLKDCKISPASKNKLTVAPFKGGTLFGGEVHKVIKKRGNKQ | soluble
4 | MGSDKIHHHHHHMDGGFMQKKVLLVGLGVMGSRIAANFASAGKLAGVYDRNVDKAKNTASMLKVGFYRDLGEAVKNSDIIVTMLYDDRSVKEVYSQMEQGVQGKVFIDMSTISPDTSIEIAKRIKEKGGKMYDAPVIGTSIAVEKKALVVLVGGDLSGYDEVRDLISATANQVVYMGDNGSGLYAKLVNNLFLGSYMASLAEAVRFGRKNGIPDSTISDVLTKYSSARSPTSDLKVPKMISEDYSVQFSIKNMLKDMEIVDRMASEKRIALPVASLALQLFRYLMDSGYGEEDIAAIYRALR | not soluble
5 | MDEVGVASEHLPDLRDRTGHAVNLAVWGDHGPVLVRWDYGAHALPITIRVGATMPLLTSAIGRVYLAHLPATMTTSIVETELETLGTNAPSKSDVARLRATVLEQGVATISGEVIPGVMSVAAPVFPAGQSIPLAVAVALPSSLGDTATVAEVTLELLRTTKAISEDYGSVGGAAGGPIA | not soluble
6 | MELKKLMGHISIIPDYRQAWKMEHKLSDILLLTICAVISGAEGWEDIEDFGETHPDFLKQYGDFENGIPVHDTIARVVSCISPAKFHECFINWMRDCHSSDDKDVIAIDGKTLRHSYDKSRRRGAIHVISAFSTMHSLVIGQIKTDEKSNEITAIPELLNMLDIKGKIITTDAMGCQKDIAEKIQKQGGDYLFAVKGNQGRLNKAFEEKFPLKELNNPAHDSYAMSEKSHGREEIRLHIVCDVPDELIDFTFEWKGLKKLCVAVSFRSIIAEQKKELEMTVRYYISSADLTAEKFATAIRNHWHVENKLHWRLDVVMNEDDCKIRRGNAAELFSGIRHIAINILTNDKVFKAGLRRKMRKAAMDRNYLASVLTGSGLS | soluble
7 | MSLVMSGEKMKVIIVEDEFLAQQELSWLINTHSQMEIVGSFDDGLDVLKFLQHNKVDAIFLDINIPSLDGVLLAQNISQFAHKPFIVFITAWKEHAVEAFELEAFDYILKPYQESRIINMLQKLTTAWEQQNNAAEGHHHHHH | soluble
8 | MGSDKIHHHHHHMTPDQYCQEKAVQSGSSFYYSFLYLPPERRRAITALYAFCREVDDVVDECTEASVARVKLAWWRQEVAAIFDAGGNKPSHPVAQALAGVASTFNLTADRLNEIIDGMEMDLDYNRYADFDTLRHYCYHVASVVGLCSAEIFGYRNPKTLEYAQDLGLAFQLTNIIRDVGEDARRDRIYLPQDELARFGVSNEDILQSRETDNFRRLIEFQIDRAESYYANAFAALPEEDRKSQRSGIIMAAIYQALLKEIKADGCHVMRQRISLTPLRKLWIAWKTWMKG | not soluble
9 | MVAFTVDQMRSLMDKVTNVRNMSVIAHVDHGKSTLTDSLVQRAGIISAAKAGEARFTDTRKDEQERGITIKSTAISLYSEMSDEDVKEIKQKTDGNSFLINLIDSPGHVDFSSEVTAALRVTDGALVVVDTIEGVCVQTETVLRQALGERIKPVVVINKVDRALLELQVSKEDLYQTFARTVESVNVIVSTYADEVLGDVQVYPARGTVAFGSGLHGWAFTIRQFATRYAKKFGVDKAKMMDRLWGDSFFNPKTKKWTNKDTDAEGKPLERAFNMFILDPIFRLFTAIMNFKKDEIPVLLEKLEIVLKGDEKDLEGKALLKVVMRKFLPAADALLEMIVLHLPSPVTAQAYRAEQLYEGPADDANCIAIKNCDPKADLMLYVSKMVPTSDKGRFYAFGRVFAGTVKSGQKVRIQGPNYVPGKKDDLFIKAIQRVVLMMGRFVEPIDDCPAGNIIGLVGIDQFLLKTGTLTTSETAHNMKVMKFSVSPVVQVAVEVKNANDLPKLVEGLKRLSKSDPCVLTYMSESGEHIVAGTGELHLEICLQDLEHDHAGVPLKISPPVVAYRETVESESSQTALSKSPNKHNRIYLKAEPIDEEVSLAIENGIINPRDDFKARARIMADDYGWDVTDARKIWCFGPDGNGPNLVIDQTKAVQYLHEIKDSVVAAFQWATKEGPIFGEEMRSVRVNILDVTLHADAIHRGGGQIIPTMRRATYAGFLLADPKIQEPVFLVEIQCPEQAVGGIYSVLNKKRGQVVSEEQRPGTPLFTVKAYLPVNESFGFTGELRQATGGQAFPQMVFDHWSTLGSDPLDPTSKAGEIVLAARKRHGMKEEVPGWQEYYDKL | soluble
10 | GPGSMCSPIADNADMIVPSADTCCPNTVFERVLRCACIVMRVGDDPGYIWTPQRLGAGSFGTVTLAYRHEGDAVWRKTAVKRISLRKETRLSAVLEKVRCTGREVALCRRAGVSPHVVPMYKPWFDCREGVIALPMDAGDFSLEQYAVHCGFRFPPLALLSMCAQCARAVAHLHRRGVVHRDVKPDNFVVNVFDTVGGAGAGGDGDCGEARPPFVRILDFGLACGVEEVEQELKRCVGTPHYMAPETFSHLCDCDVPAACDVWSLGVTLFRLATGVFPVFDQDVTASWPPASASSARLGVPRLRSPWPRVVERCPAPW | not soluble
11 | MGSDKIHHHHHHMLMDSLQEIICEKRTYTRLYHSHKHAYSQFLFPLEGSIDLETEGRQVKLNPDHFLYIPPQCEHRFRSIGRNECLVLDVPLHAMKIDEYRAGSGIEAALDPFWSSIRYLLTEEAKAGTANSLHMLVQYIKEKLQSHSYASIAYIHSHLFERLTIKKLAEIEHYHPAYYSSWFKKQTGKSPQNYIADLRLEEAKRMLMERNETLTVVSEALGFQNLSSFTRWFTKSTGMPPRLYRNTLYSDKK | not soluble
12 | AIAEEWDVPQMKKEVESLKYQLAFQREMASKTIPELLKWIEDGIPKDPFLNPDLMKNNPWVEKGKCTIL | soluble
13 | MTEMKILIVTLTYIEKSIIDEIVNNLSSYGLEVDILLDSRKYLPISAFNWERLQYDAEKVLSFLKSIHDFNYDSIIFLADSDGYIDGYNFVFGLTIDNFAIIFLHRLREEFYNRKPDLDLFMKRVVKEVTHEVGHTLGLSHCNTTGCVMNFSNSVEDVDKKQAKFCKNCAHKIEKLSKYLQQKLEHHHHHH | not soluble
14 | MSLTVRFTESVSKQDLDALFEWAKASYGAESCWKTLYLNGLPLGNLSPEWVERVKKDWEAGCSESSDGIFLNADGWPDMGGRLQHLALGWHCAGLLDGWRNECFDLTDGGGNPLFTLERAAFRPFGLLSRAVHLNGLTESDGRWHFWIGRRSPHKAVDPNKLDNTAAGGVSGGEMPSEAVCRESSEEAGLDKTLLPLIRPVSQLHSLRSVSRGVHNEILYVFDAVLPETFLPENQDGEVAGFEKMDIGGLLDAMLSGNMMHDAQLVTLDAFCRYGLIDAAHPLSEWLDGIREGHHHHHH | not soluble
15 | MGEQPIFSTRAHVFQIDPNTKKNWVPTSKHAVTVSYFYDSTRNVYRIISLDGSKAIINSTITPNMTFTKTSQKFGQWADSRANTVYGLGFSSEHHLSKFAEKFQEFKEAAR | soluble
16 | MGSDKIHHHHHHMYPRYSEINVKEALSDTPVVFVMGPRQAGKTTLVKSLIMDMGSENWTYITLDDQAQFEIAQADPVGFVRNLPSTRIALDEVQRLPELFVSIKQAVDEQRSPGRFLLTGSANALLLPRLSDSLAGRMESVRLMTLSECEIQGRQPSFLIKLLREEAPSTQDIRVRDHLLQRLVTGCFPEPLQRANERRRQAWYQQYTSTLIQRDIRDLTHIDHPDLMAKLLKLTAFYAGKLVNLTELGGKLGLDRLTIKKYMALLEQLFLVEQLPAWHSNEYKRLVKTPKLHPVDTGMMCAVRGLNQERLLKQPGDFGLVLESFVYNELRKQSVWIDEPLNFYHYRDKDKVEVDVVIENTMGDCFAIEIKAAATLNTKDFTGLKRFQSVAGDRFKIGVLLYDGDHTTAFGDNLYAVPVGALWS | not soluble
17 | MKFEFRTLVLISLAVVVVLSGCSQSPSSGGVPEYSGSKVYSAPTLYSQLIGVPTEGVSVKAYTVENANAKDILSWYKEKLSDYEIVNEMSVVQMTTPQGSAEWGAILFKKGDKGVGIWAMSGSGVEGGGAVYFIVEGPIDKLTGESGEAGGAGEQLPASDQASGEEPVKRYPGSVMLSYYKDTSNPLEVSIGIDYGTEDSAEKVAHWYKQELQAEGWVLESESSDDSSIDLAFSRGKEYIDIYIIEPYEGFLTRKLTSTTGRRGCHLTTWSVERSRWRGIPAQLCWNT | not soluble
18 | EGRYIYMNPAHREMFGIATEDEILGRSWRELYSGDVADHIATTALPALLSTGGWRGELIGRRRDGSDLPQEVSLTLKADGGIICISRD | not soluble
19 | MTDVLPTIELFDGIAEELDNVSLRRDRQSGTRNVLLRFRALKALDRFNSFRSRFSKAIRLTDSEGAIELWPDSSKLVFGGDDGDELDRVEFVVPIDNEDHWQRFMRFMERYAAANDMTYGDRQALEHHHHHH | soluble
20 | MQRARCYLLGETAVVLELEPPITLASQKRIWRLTQRLVDMPNVVEAIPGMNNITVILREPQTLALDAIERLQRWWEESEALEPDSRSVEIPVIYGGAGGPDLAAVARHSGLSEKQVVELHASVEYVVWFLGFQPGFPYLGNLPEPLHMPRRAEPRLQVPAGSVGIGGAQTGIYPLSTPGGWQLIGLTPLKLFDPMRETPVLLRPGDSVRFVPQKEGICMAGDPLEHHHHHH | not soluble
21 | SIIPSLEELDSLKYSDLQNLAKSLGLRANLRATKLLKALKGYIKHEARKGNENQDESQTSASSCDETEIQISNQEEAERQPLGHVTKTRRRCKTVRVDPDSQQNHSEIKISNPTEFQNHEKQESQDLRATAKVPSPPDEHQEAENAVSSGNRDSKVPSEGKKSLYTDESSKPGKNKRTAITTPNFKKLHEAHFKEMESIDQYIERKKKHFEEHNSMNELKQPINKGGVRTPVPPRGRLSVASTPISQRRSQGRSCGPASQSTLGLKGSLKRSAISAAKTGVRFSAATKDNEHKRSLTKTPARKSAHVTVSGGTPKGEAVLGTHKLKTITGNSAAVITPFKLTTEATQTPVSNKKPVFDLKASLSRPLNYEPHKGKLKPWGQSKENNYLNQHVNRINFYKKTYKQPHLQTKEEQRKKREQERKEKKAKVLGMRRGLILAED | not soluble
22 | MGHHHHHHSHMSCTIEKILTDAKTLLERLREHDAAAESLVDQSAALHRRVAAMREAGTALPDQYQEDASDMKDMSKYKPHILLSQENTQIRDLQQENRELWISLEEHQDALELIMSKYRKQMLQLMVAKKAVDAEPVLKAHQSHSAEIESQIDRICEMGEVMRKAVQVDDDQFCKIQEILAQLELENKELRELLSISSESHQARKENSMDTASQAIK | not soluble
